In assay [1] the target is human KDM5D PHD1 finger (human, Zn2+-bound; 15N-labelled). As to the kind of experiment: NMR titration.
The target of assay [2] is T1, yeast KDM5 PHD finger (S. cerevisiae, Zn2+-bound; 15N-labelled).
T1 chain: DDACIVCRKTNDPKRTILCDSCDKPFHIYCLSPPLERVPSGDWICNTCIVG
As to the kind of experiment: NMR titration.

In the case of ARTKQTARKSTG (peptide, UniProt P68431 2-13, looked up) [H3K4me0 peptide (aa 1-12 of H3)], the values for the Kd in assay [1] and in assay [2] were 3500 µM and 117 µM, respectively.
